We go through 2 molecules from PMC3974700, “SDA, a DNA Aptamer Inhibiting E- and P-Selectin Mediated Adhesion of Cancer and Leukemia Cells, the First and Pivotal Step in Transendothelial Migration during Metastasis Formation”.

In data set [1] the target is P-selectin/IgG-Fc chimera (human, UniProt P16109 42-771). The data set can be described thus: filter binding; 3 mM Mg2+; Selection buffer: 3 mM MgCl2 in PBS, pH 7.5 (with 1 mg/mL BSA as described for SELEX beads); room temperature, 30 min; DNA <1 nM, protein 0-1 uM. Conditions: protein: commercial; tags: IgG-Fc fusion; chain copies: 2; label: 32P (T4 polynucleotide kinase).

Data set [2] deals with T1, E-selectin/IgG-Fc chimera (human, UniProt P16581 22-556).
T1 sequence: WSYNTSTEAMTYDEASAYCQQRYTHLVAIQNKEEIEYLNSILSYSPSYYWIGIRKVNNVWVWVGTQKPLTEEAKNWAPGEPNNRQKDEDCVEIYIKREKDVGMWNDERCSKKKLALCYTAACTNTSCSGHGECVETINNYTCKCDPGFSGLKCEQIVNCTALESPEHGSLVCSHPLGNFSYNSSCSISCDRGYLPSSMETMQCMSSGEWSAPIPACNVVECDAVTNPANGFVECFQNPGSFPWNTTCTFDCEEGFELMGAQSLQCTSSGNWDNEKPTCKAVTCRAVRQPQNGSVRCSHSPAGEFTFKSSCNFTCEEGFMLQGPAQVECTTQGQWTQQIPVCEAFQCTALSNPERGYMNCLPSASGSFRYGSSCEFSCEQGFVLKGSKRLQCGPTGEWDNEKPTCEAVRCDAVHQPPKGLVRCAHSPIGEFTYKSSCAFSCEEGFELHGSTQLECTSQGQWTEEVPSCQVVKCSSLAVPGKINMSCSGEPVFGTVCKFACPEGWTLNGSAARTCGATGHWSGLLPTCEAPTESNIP
The data set is described as above. The note with it: protein: commercial; tags: IgG-Fc fusion; chain copies: 2; label: 32P (T4 polynucleotide kinase).

Chain of P-selectin/IgG-Fc chimera (P16109 42-771, change not shown): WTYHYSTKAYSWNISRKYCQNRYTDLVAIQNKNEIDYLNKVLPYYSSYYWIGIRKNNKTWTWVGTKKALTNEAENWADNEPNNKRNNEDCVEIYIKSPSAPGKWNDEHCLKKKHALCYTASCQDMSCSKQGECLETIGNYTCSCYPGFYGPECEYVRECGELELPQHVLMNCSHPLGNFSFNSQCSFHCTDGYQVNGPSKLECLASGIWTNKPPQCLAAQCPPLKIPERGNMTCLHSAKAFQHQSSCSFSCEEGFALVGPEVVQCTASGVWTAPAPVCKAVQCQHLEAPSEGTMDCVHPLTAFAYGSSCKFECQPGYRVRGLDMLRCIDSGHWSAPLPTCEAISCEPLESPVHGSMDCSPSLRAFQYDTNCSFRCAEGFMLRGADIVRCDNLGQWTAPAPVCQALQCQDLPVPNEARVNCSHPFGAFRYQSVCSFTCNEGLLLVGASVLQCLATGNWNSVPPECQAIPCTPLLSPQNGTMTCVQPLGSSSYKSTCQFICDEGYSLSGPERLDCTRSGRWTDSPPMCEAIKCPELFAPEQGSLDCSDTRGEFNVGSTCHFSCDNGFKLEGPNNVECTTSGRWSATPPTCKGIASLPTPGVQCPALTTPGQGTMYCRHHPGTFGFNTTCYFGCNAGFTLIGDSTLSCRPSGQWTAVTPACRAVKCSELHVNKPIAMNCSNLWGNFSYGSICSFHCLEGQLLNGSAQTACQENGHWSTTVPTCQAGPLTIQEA

B1: SDA (ssDNA)
DNA: GCCTGTTGTGAGCCTCCTAACGATTTGGATTTGGGGTGGAGGGTATGGTTTGTGCTGGCGTTCTCATTTCCCATGCTTATTCTTGTCTCCC
By Kd is commonly meant the equilibrium constant for the complex coming apart. Read a high Kd as lower affinity. Take B1: the Kd was found to be 95 ± 18 nM in data set [1] and 98 ± 16 nM in data set [2].

B2: control DNA (ssDNA)
DNA: GCCTGTTGTGAGCCTCCTAACGAGGAGTGGGCTAAAGGTATGTTGTGGGTTTGGTTCCATGCTTATTCTTGTCTCCC
For B2, the binding result in data set [1] and in data set [2] was “no binding” each time.
